Measurements as given in article PMC9470594, “Paternal imprinting of dosage-effect defective1 contributes to seed weight xenia in maize”.

B1: fl3 promoter probe (dsDNA)
DNA 1: TGTACAAATATTTCTACTGACAGTTTTTAAGAAACCACCTGTGGA
DNA 2: TCCACAGGTGGTTTCTTAAAAACTGTCAGTAGAAATATTTGTACA
B2: sus1 promoter probe (dsDNA)
DNA 1: CTGAACCGTTTTTCGGTTTCAGTTTTCTCTGCTGACTGAAGCTTC
DNA 2: GAAGCTTCAGTCAGCAGAGAAAACTGAAACCGAAAAACGGTTCAG
B3: c1 promoter probe (dsDNA)
DNA 1: CATCATTCGATCAGTTTTCGTTCTGATGCAGTTTTCGATAAATGC
DNA 2: GCATTTATCGAAAACTGCATCAGAACGAAAACTGATCGAATGATG
B4: vp1 promoter probe (dsDNA)
DNA 1: GTCCTTGAAACTGCAATCCAAATCTACGCAACCGTTTTGCATGCCACTGTTTGTA
DNA 2: TACAAACAGTGGCATGCAAAACGGTTGCGTAGATTTGGATTGCAGTTTCAAGGAC

Molecular target: DED1 (R2R3-MYB), GST fusion (Zea mays, UniProt A0A804M0V9 1-450)
Experiment: EMSA; 5 mM Mg2+; EMSA: 50 ng DED1-GST, 6 ng probe in 20 uL 10 mM Tris pH 7.5, 50 mM KCl, 1 mM DTT, 2.5% glycerol, 5 mM MgCl2, 50 ug/uL (so in the source) poly(dI-dC), 0.05% NP-40, 25
Conditions: protein: recombinant; tags: GST (N-terminal, pGEX-4T-1); label: biotin 3' end on one strand; blunt

Sequence of DED1 (R2R3-MYB), GST fusion (A0A804M0V9 entry or part of it): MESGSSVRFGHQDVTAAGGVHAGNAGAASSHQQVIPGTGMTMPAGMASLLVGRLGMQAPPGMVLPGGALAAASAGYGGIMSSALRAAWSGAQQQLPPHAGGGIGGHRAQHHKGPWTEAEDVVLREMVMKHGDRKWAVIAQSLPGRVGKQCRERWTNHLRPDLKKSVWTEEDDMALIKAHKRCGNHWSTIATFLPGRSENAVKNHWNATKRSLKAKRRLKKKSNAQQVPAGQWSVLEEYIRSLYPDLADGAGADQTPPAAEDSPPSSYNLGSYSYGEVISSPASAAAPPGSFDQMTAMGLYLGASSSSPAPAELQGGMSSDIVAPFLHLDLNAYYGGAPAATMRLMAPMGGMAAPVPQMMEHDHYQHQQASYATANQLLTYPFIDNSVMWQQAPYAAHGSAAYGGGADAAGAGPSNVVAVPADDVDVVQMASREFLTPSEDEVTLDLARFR

Binder | binding result
B1 | binds
B2 | binds
B3 | binds
B4 | binds
